Data published in PMC9684487, “Human antibody recognition and neutralization mode on the NTD and RBD domains of SARS-CoV-2 spike protein” (Scientific Reports, 2022).

Target: T1, S protein trimer with D614G mutation (SARS-CoV-2, D614G, D614G)
T1 construct: also called Spike; homotrimeric S protein
Experiment: cryo-EM structure
Conditions: both partners purified

Binder | stoichiometry N
NIBIC-71 (antibody, V domains shown, also called recombinant mAb NIBIC-71) VH: EVQLVESGGGLIQPGGSLRLSCEASGLIVSSNYMTWVRQAPGKGLEWVSVIYSGGSTFYADSVKGRFTVSRDNSKNTLYLQMNNLSPEDTAVYYCARDLGPYGVDVWGQGTTVTVSS VL: AIQLTQSPSSLSASVGDRVTITCRASQGISSYLAWYQQTPGKAPKLLIYAASTLQSGVPSRFSGSGSGTDFTLTISSLQPEDFATYYCQQLNSYPPFTFGPGTKVDIK | 2 Fabs per S protein trimer
7G7/κ (antibody, V domains shown, also called 7G7-IgG1κ; 7G7/κ (IgG1/Igκ); source: Expi293F, cotransfected with IgH and IgL vectors, purified (HiTrap Protein G)) VH: QVQLVESGGGVVQPGRSLRLSCIASGFTFRNYAMYWVRQAPGKGLEWVAVIWYDGSNKFYTDSVKGRFTISRDNSKNSLYLQMNSLRAEDTAVYFCARDQGFGDNYYYYGMDVWGQGTTVTVSS VL: SYELTQPPSVSVSPGQTARISCSGDALPKEYAYWYQQKPGQAPVLVIYKDSERPSGIPERFSGSSSGTTVTLTISGVQAEDEADYYCQLADSSMHYVVFGGGTKLTVL | 3 Fabs per S protein trimer
